# Source: publication PMC12499436, “Human Schlafen 14 Cleavage of Short Double‐Stranded RNAs Underpins its Antiviral Activity” (Advanced Science, 2025)
# T1: SLFN14mut (Homo sapiens, UniProt P0C7P3 1-912, E211A;C365S;C775S;C808S)
# T1 sequence: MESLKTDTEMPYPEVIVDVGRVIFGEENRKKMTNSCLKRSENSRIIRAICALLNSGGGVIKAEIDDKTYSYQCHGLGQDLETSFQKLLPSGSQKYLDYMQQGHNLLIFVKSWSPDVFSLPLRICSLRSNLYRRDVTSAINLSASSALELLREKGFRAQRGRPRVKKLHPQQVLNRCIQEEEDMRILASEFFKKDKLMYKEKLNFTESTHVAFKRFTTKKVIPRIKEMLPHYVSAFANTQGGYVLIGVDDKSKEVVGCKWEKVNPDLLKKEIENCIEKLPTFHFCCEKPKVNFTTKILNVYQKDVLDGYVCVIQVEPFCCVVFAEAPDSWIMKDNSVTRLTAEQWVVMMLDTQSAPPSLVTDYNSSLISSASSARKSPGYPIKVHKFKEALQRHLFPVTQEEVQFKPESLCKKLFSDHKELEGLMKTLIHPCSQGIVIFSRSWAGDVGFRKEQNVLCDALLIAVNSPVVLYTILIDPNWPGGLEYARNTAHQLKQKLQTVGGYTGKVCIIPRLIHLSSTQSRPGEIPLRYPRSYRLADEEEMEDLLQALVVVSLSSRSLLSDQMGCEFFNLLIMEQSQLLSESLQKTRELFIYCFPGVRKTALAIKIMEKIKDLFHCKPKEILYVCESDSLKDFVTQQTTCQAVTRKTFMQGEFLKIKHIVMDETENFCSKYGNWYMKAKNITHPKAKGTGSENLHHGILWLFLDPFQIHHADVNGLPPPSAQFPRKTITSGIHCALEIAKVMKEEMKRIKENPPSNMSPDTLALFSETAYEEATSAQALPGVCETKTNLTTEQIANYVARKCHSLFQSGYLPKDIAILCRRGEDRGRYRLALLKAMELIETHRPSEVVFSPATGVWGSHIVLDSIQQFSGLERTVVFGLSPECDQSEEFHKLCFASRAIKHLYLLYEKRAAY
# T2: SLFN14 (WT) (Homo sapiens, UniProt P0C7P3 1-912)
# T2 sequence: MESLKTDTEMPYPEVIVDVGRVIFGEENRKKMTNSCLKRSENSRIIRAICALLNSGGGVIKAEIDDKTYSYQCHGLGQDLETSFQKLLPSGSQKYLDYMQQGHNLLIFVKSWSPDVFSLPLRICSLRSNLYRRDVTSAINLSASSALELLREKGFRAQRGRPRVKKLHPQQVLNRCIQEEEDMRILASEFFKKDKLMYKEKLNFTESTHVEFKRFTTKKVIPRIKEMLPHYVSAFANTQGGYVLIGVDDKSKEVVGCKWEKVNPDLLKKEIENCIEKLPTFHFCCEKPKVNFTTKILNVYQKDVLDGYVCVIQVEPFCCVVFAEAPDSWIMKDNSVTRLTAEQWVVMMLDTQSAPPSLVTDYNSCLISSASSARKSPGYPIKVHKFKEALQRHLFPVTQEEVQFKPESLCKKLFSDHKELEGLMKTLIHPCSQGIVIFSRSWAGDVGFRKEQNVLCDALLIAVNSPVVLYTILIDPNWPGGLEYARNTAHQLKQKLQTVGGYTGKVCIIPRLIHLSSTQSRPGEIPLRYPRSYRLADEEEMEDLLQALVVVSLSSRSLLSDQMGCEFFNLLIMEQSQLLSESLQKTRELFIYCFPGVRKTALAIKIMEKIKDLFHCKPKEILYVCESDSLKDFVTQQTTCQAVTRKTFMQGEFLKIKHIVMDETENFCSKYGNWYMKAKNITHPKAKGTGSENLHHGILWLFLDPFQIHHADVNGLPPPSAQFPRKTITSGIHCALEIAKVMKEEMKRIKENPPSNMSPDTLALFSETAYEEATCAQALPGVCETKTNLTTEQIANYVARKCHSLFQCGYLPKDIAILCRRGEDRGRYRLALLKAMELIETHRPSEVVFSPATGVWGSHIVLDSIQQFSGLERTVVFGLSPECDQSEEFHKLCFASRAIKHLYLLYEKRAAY
# T3: SLFN11 (WT) (Homo sapiens, UniProt Q7Z7L1 1-901)
# T3 sequence: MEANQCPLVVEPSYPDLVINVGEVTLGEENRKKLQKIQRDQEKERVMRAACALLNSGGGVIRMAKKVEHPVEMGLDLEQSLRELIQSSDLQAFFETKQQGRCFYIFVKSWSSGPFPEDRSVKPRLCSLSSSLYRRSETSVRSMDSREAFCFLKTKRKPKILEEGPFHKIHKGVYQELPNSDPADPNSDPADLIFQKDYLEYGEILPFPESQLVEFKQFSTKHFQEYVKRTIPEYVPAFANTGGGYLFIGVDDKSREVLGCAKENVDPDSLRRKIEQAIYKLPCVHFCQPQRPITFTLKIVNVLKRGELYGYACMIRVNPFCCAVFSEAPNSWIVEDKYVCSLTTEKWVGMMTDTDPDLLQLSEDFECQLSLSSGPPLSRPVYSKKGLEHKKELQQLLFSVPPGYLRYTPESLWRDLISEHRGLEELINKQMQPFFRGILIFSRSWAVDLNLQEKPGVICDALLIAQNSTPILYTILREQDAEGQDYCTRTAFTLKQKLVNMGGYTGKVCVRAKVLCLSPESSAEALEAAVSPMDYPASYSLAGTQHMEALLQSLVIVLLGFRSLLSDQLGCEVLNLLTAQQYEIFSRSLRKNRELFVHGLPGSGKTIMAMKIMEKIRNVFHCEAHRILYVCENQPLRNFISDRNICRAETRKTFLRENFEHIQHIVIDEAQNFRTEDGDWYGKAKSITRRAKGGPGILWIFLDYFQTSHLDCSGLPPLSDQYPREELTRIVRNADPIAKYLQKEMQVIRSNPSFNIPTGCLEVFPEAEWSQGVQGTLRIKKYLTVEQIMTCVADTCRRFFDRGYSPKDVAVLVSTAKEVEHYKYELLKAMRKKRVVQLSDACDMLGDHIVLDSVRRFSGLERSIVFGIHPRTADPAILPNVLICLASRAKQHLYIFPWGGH
# B1: human SLFN14, wild type (strep-strep-SUMO tagged) (enzyme, UniProt P0C7P3 1-912, looked up)
# chain: MESLKTDTEMPYPEVIVDVGRVIFGEENRKKMTNSCLKRSENSRIIRAICALLNSGGGVIKAEIDDKTYSYQCHGLGQDLETSFQKLLPSGSQKYLDYMQQGHNLLIFVKSWSPDVFSLPLRICSLRSNLYRRDVTSAINLSASSALELLREKGFRAQRGRPRVKKLHPQQVLNRCIQEEEDMRILASEFFKKDKLMYKEKLNFTESTHVEFKRFTTKKVIPRIKEMLPHYVSAFANTQGGYVLIGVDDKSKEVVGCKWEKVNPDLLKKEIENCIEKLPTFHFCCEKPKVNFTTKILNVYQKDVLDGYVCVIQVEPFCCVVFAEAPDSWIMKDNSVTRLTAEQWVVMMLDTQSAPPSLVTDYNSCLISSASSARKSPGYPIKVHKFKEALQRHLFPVTQEEVQFKPESLCKKLFSDHKELEGLMKTLIHPCSQGIVIFSRSWAGDVGFRKEQNVLCDALLIAVNSPVVLYTILIDPNWPGGLEYARNTAHQLKQKLQTVGGYTGKVCIIPRLIHLSSTQSRPGEIPLRYPRSYRLADEEEMEDLLQALVVVSLSSRSLLSDQMGCEFFNLLIMEQSQLLSESLQKTRELFIYCFPGVRKTALAIKIMEKIKDLFHCKPKEILYVCESDSLKDFVTQQTTCQAVTRKTFMQGEFLKIKHIVMDETENFCSKYGNWYMKAKNITHPKAKGTGSENLHHGILWLFLDPFQIHHADVNGLPPPSAQFPRKTITSGIHCALEIAKVMKEEMKRIKENPPSNMSPDTLALFSETAYEEATCAQALPGVCETKTNLTTEQIANYVARKCHSLFQCGYLPKDIAILCRRGEDRGRYRLALLKAMELIETHRPSEVVFSPATGVWGSHIVLDSIQQFSGLERTVVFGLSPECDQSEEFHKLCFASRAIKHLYLLYEKRAAY
# notes: human Schlafen 14 (SLFN14), Gene ID 342618, wild type, codon-optimised gene; also called WT-SLFN14; Schlafen 14; source: HEK293F, transiently transfected, purified (Strep-Tactin, SEC); not shown: strep-strep, N-terminal, kept; SUMO, N-terminal, kept
# B2: SLFN14 E211A-C365S-C775S-C808S (SLFN14^mut) (enzyme, human, UniProt P0C7P3 1-912, looked up)
# chain: MESLKTDTEMPYPEVIVDVGRVIFGEENRKKMTNSCLKRSENSRIIRAICALLNSGGGVIKAEIDDKTYSYQCHGLGQDLETSFQKLLPSGSQKYLDYMQQGHNLLIFVKSWSPDVFSLPLRICSLRSNLYRRDVTSAINLSASSALELLREKGFRAQRGRPRVKKLHPQQVLNRCIQEEEDMRILASEFFKKDKLMYKEKLNFTESTHVAFKRFTTKKVIPRIKEMLPHYVSAFANTQGGYVLIGVDDKSKEVVGCKWEKVNPDLLKKEIENCIEKLPTFHFCCEKPKVNFTTKILNVYQKDVLDGYVCVIQVEPFCCVVFAEAPDSWIMKDNSVTRLTAEQWVVMMLDTQSAPPSLVTDYNSSLISSASSARKSPGYPIKVHKFKEALQRHLFPVTQEEVQFKPESLCKKLFSDHKELEGLMKTLIHPCSQGIVIFSRSWAGDVGFRKEQNVLCDALLIAVNSPVVLYTILIDPNWPGGLEYARNTAHQLKQKLQTVGGYTGKVCIIPRLIHLSSTQSRPGEIPLRYPRSYRLADEEEMEDLLQALVVVSLSSRSLLSDQMGCEFFNLLIMEQSQLLSESLQKTRELFIYCFPGVRKTALAIKIMEKIKDLFHCKPKEILYVCESDSLKDFVTQQTTCQAVTRKTFMQGEFLKIKHIVMDETENFCSKYGNWYMKAKNITHPKAKGTGSENLHHGILWLFLDPFQIHHADVNGLPPPSAQFPRKTITSGIHCALEIAKVMKEEMKRIKENPPSNMSPDTLALFSETAYEEATSAQALPGVCETKTNLTTEQIANYVARKCHSLFQSGYLPKDIAILCRRGEDRGRYRLALLKAMELIETHRPSEVVFSPATGVWGSHIVLDSIQQFSGLERTVVFGLSPECDQSEEFHKLCFASRAIKHLYLLYEKRAAY
# notes: human Schlafen 14 (SLFN14), Gene ID 342618, full length, with four mutations introduced for cryo-EM; No tag cleavage is described in the purification; also called apo SLFN14; SLFN14 apoenzyme; source: Sf21 (baculovirus, pFastBac1), purified (Ni-NTA, heparin, SEC)
# What was measured:
# SLFN14mut = target: T1, SLFN14mut; assay: cryo-EM structure; 2.88 A; Zn2+ (2 per dimer); no active-site ion density; BLI: PBS, 0.02% P20, 0.1% BSA, 25 C; EMSA: 25 mM HEPES pH 7.5, 50 mM NaCl, 8% glycerol, 2 mM MgCl2, 1 mM DTT, 4 C, 50 nM ssDNA; cryo-EM: RNA in 40 mM Tris-HCl pH 8.0, 20 mM KCl, 4 mM MgCl2, 2 mM DTT, protein:RNA 1:1.2, 4 C overnight; conditions: protein: recombinant; tags: 6xHis-SUMO (N-term); chain copies: 2; hairpin, 12-bp stem, 7-nt loop
# [1] = target: the molecule itself; assay: SEC; recombinant strep-strep-SUMO tagged SLFN14 in solution with 150 mM NaCl; gel-filtration standards
# [2] = target: the molecule itself; assay: cryo-EM structure; apo SLFN14^mut, single-particle analysis, 2.84 Å
# SLFN14 (WT) = target: T2, SLFN14 (WT); assay: BLI; steady state; kdis 1.3e-3 /s; BLI: PBS, 0.02% P20, 0.1% BSA, 25 C; EMSA: 25 mM HEPES pH 7.5, 50 mM NaCl, 8% glycerol, 2 mM MgCl2, 1 mM DTT, 4 C, 50 nM ssDNA; cryo-EM: RNA in 40 mM Tris-HCl pH 8.0, 20 mM KCl, 4 mM MgCl2, 2 mM DTT, protein:RNA 1:1.2, 4 C overnight; conditions: protein: recombinant; tags: Strep-Strep-SUMO (N-term); chain copies: 2
# SLFN11 (WT) = target: T3, SLFN11 (WT); assay: BLI; steady state; kdis 4.8e-4 /s; BLI: PBS, 0.02% P20, 0.1% BSA, 25 C; EMSA: 25 mM HEPES pH 7.5, 50 mM NaCl, 8% glycerol, 2 mM MgCl2, 1 mM DTT, 4 C, 50 nM ssDNA; cryo-EM: RNA in 40 mM Tris-HCl pH 8.0, 20 mM KCl, 4 mM MgCl2, 2 mM DTT, protein:RNA 1:1.2, 4 C overnight; conditions: protein: recombinant; tags: Strep-II-SUMO (N-term); chain copies: 2
binder,measurement,setting,value
GCAUCAGCUACCUAAAGUUCAGGUAGCUGAUG (structured_RNA) [short hairpin RNA (hRNA)],binding result,SLFN14mut,binds
B1,stoichiometry N,[1],2
B2,binding result,[2],binds
AATTGGTCGTAGCAAGCTCTAGCACCGCTTAAACGCACGTACGCGCTGTC (ssDNA) [50-nt ssDNA (BLI)],Kd,SLFN14 (WT),0.009 µM
same,Kd,SLFN11 (WT),0.037 µM
